Test [1] addresses NRC SARS-CoV-2 (reference strain) spike protein reference material SMT1-1 (SARS-CoV-2 (reference strain, Wuhan-Hu-1)). The experiment in a line: SEC-MALS; Waters BEH SEC 4.6 x 150 mm column (200 A for ACE2-1, 450 A for OMIC-1), DPBS with 0.02% Tween-20, pH 7.4, 0.4 mL/min; UV at 280 nm, MALS and RI detection; relative amounts of species from SEC-UV.
The target in test [2] is biotinylated human angiotensin-converting enzyme 2 reference material ACE2-1 (human) (UniProt Q9BYF1). Nature of the test: SPR; ACE2-1 immobilised by its biotin on streptavidin on a biotin-coated Au chip (250-300 RU), blocked with 10 uM BSA; spike analyte in a twofold series of 12.5-200 nM at 50 uL/min, about 90 s association, 30-45 min dissociation; 10 mM HEPES pH 7-7.4, 150 mM NaCl, 3 mM EDTA, 0.05% Tween-20; 1:1 binding model; averages of two independent experiments.
biotinylated human angiotensin-converting enzyme 2 reference material ACE2-1 (human), sequence (Q9BYF1 20-614): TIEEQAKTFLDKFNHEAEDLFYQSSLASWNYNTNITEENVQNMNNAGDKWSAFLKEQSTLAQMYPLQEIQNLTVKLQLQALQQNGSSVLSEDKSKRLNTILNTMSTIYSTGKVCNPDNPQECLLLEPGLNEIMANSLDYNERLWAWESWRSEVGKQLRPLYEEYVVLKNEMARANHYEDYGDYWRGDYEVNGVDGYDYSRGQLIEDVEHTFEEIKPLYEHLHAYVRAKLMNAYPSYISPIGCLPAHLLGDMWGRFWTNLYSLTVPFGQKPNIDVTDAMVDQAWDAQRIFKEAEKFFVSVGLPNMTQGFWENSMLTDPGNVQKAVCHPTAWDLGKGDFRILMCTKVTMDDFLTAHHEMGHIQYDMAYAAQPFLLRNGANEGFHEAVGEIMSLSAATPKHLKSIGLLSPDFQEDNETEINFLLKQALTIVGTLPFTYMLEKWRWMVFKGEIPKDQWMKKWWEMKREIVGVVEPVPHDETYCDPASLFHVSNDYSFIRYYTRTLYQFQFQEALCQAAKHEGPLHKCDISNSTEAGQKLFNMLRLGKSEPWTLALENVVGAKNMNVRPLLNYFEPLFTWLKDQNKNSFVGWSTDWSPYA

Take “NRC SARS-CoV-2 (reference strain) spike protein reference material SMT1-1”: in test [1], the stoichiometry N worked out at 3. In test [2], this substance returned a Kd of 0.0171 µM, a koff of 0.0018 s⁻¹ and a kon of 110000 M⁻¹ s⁻¹.

(Values after publication PMC11330416.)
